Reference: paper PMC3547035, “Investigating the Antiproliferative Activity of High Affinity DNA Aptamer on Cancer Cells”

Columns and labels:
[1] = biological target: VEGF165 (Homo sapiens, UniProt P15692-4 27-191); assay: SPR; SPR BIAcore 2000, CM5 chip, immobilized protein ~200 RU, PBS + Tween-20 running buffer (pH not stated), 25 C, aptamer 0.2-100 nM, 1:1 Langmuir fit; details: protein: recombinant; tags: carrier free; chain copies: 2; hairpin (CD)
[2] = biological target: VEGF121 (Homo sapiens, UniProt P15692-9 27-147); assay: as above; details: protein: recombinant; tags: carrier free; chain copies: 2; hairpin (CD)
Chain of VEGF121 (P15692 other isoform, or with tags, fused parts or gaps): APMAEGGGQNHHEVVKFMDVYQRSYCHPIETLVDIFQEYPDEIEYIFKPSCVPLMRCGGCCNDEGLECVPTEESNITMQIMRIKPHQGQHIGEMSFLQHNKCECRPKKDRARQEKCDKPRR

Chain of VEGF165 (P15692 other isoform, or with tags, fused parts or gaps): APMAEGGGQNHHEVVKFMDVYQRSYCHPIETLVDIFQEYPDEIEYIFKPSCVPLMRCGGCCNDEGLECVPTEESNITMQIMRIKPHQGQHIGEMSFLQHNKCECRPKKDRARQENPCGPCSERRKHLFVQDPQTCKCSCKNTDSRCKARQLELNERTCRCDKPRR

Binder: CAATTGGGCCCGTCCGTATGGTGGGT (XNA, phosphorothioate linkages C1*A2 and G25*T26) [PS-modified SL2-B]
- Kd [1]: 0.00056 ± 0.00044 µM
- Kd [2]: 17 ± 1.24 µM
